Reference: PMC6779512 (Proteins, 2019)
Positions count from the first letter of the chain named. In names and notes the source's numbering stands.

B1: Spa47 E267A (enzyme)
chain: MSYTKLLTQLSFPNRISGPILETSLSDVSIGEICNIQAGIESNEIVARAQVVGFHDEKTILSLIGNSRGLSRQTLIKPTAQFLHTQVGRGLLGAVVNPLGEVTDKFAVTDNSEILYRPVDNAPPLYSERAAIEKPFLTGIKVIDSLLTCGEGQRMGIFASAGCGKTFLMNMLIEHSGADIYVIGLIGERGREVTETVDYLKNSEKKSRCVLVYATSDYSSVDRCNAAYIATAIAEFFRTEGHKVALFIDSLTRYARALRDVALAAGASPARRGYPVSVFDSLPRLLERPGKLKAGGSITAFYTVLLEDDDFADPLAEEVRSILDGHIYLSRNLAQKGQFPAIDSLKSISRVFTQVVDEKHRIMAAAFRELLSEIEELRTIIDFGEYKPGENASQDKIYNKISVVESFLKQDYRLGFTYEQTMELIGETIR
B2: Spa47 E267R (enzyme)
chain: B1 chain with A267R

Target: the molecule itself
Experiment: SEC

| Protein | binding result |
| --- | --- |
| B1 | binds |
| B2 | binds |
